# Patent US9149523B2, “Compositions and methods for treating cancer and neurodegenerative diseases” (Yeda Research and Development Co. Ltd., priority 2010, dated 2015)
# Tested on: HEK 293T cells
# Test: Cell detachment assay 24 h after transfection
# Assay type: cell-based, human
# Conditions: 24 h post-transfection, versus luciferase-transfected control cells, p<0.01 between the two constructs
# Experimental: Cell detachment was assessed as described before (Widau, Jin et al. 2010), by counting the adherent cells left in the tissue culture plate after 24 h of transfection with either DAPk WT or ΔP-Loop. Briefly, cells were washed twice in PBS to remove detached cells. Then, adherent cells were trypsinized and counted with a Countess® Automated Cell Counter (Invitrogen). The extent of cell detachment is defined as (the number of control cells—the number of treated cells)/(the number of control cells), where control cells are HEK 293T cell transected with the irrelevant protein luciferase.
# The functional effects of the GTP binding on DAPk's ability to induce some of its canonical phenotypic effects in cell cultures, namely cell rounding and detachment, and membrane blebbing, was assessed. These DAPk associated cellular changes are dependent on DAPk's catalytic activity and have been successfully used in other studies to assess DAPk activity in vivo (Widau, Jin et al. 2010). The necessity of the GTP-binding to the ROC domain for the extent of these effects on HEK 293T cells was examined. This was achieved by comparing DAPk WT to its P-Loop deletant counterpart. FIG. 6A presents a western blot analysis showing even expression levels between the constructs used in the cell detachment assay, ruling out any possibility of false results generated by uneven expression levels. […]
molecule,measurement,value
"WT protein: tagged human full-length death-associated protein kinase (DAPk), expressed by transfection (protein, left off: small tags and cut ends, tagged human full-length death-associated protein kinase (DAPk), expressed by transfection) MTVFRQENVDDYYDTGEELGSGQFAVVKKCREKSTGLQYAAKFIKKRRTKSSRRGVSREDIEREVSILKEIQHPNVITLHEVYENKTDVILILELVAGGELFDFLAEKESLTEEEATEFLKQILNGVYYLHSLQIAHFDLKPENIMLLDRNVPKPRIKIIDFGLAHKIDFGNEFKNIFGTPEFVAPEIVNYEPLGLEADMWSIGVITYILLSGASPFLGDTKQETLANVSAVNYEFEDEYFSNTSALAKDFIRRLLVKDPKKRMTIQDSLQHPWIKPKDTQQALSRKASAVNMEKFKKFAARKKWKQSVRLISLCQRLSRSFLSRSNMSVARSDDTLDEEDSFVMKAIIHAINDDNVPGLQHLLGSLSNYDVNQPNKHGTPPLLIAAGCGNIQILQLLIKRGSRIDVQDKGGSNAVYWAARHGHVDTLKFLSENKCPLDVKDKSGEMALHVAARYGHADVAQLLCSFGSNPNIQDKEEETPLHCAAWHGYYSVAKALCEAGCNVNIKNREGETPLLTASARGYHDIVECLAEHGADLNACDKDGHIALHLAVRRCQMEVIKTLLSQGCFVDYQDRHGNTPLHVACKDGNMPIVVALCEANCNLDISNKYGRTPLHLAANNGILDVVRYLCLMGASVEALTTDGKTAEDLARSEQHEHVAGLLARLRKDTHRGLFIQQLRPTQNLQPRIKLKLFGHSGSGKTTLVESLKCGLLRSFFRRRRPRLSSTNSSRFPPSPLASKPTVSVSINNLYPGCENVSVRSRSMMFEPGLTKGMLEVFVAPTHHPHCSADDQSTKAIDIQNAYLNGVGDFSVWEFSGNPVYFCCYDYFAANDPTSIHVVVFSLEEPYEIQLNQVIFWLSFLKSLVPVEEPIAFGGKLKNPLQVVLVATHADIMNVPRPAGGEFGYDKDTSLLKEIRNRFGNDLHISNKLFVLDAGASGSKDMKVLRNHLQEIRSQIVSVCPPMTHLCEKIISTLPSWRKLNGPNQLMSLQQFVYDVQDQLNPLASEEDLRRIAQQLHSTGEINIMQSETVQDVLLLDPRWLCTNVLGKLLSVETPRALHHYRGRYTVEDIQRLVPDSDVEELLQILDAMDICARDLSSGTMVDVPALIKTDNLHRSWADEEDEVMVYGGVRIVPVEHLTPFPCGIFHKVQVNLCRWIHQQSTEGDADIRLWVNGCKLANRGAELLVLLVNHGQGIEVQVRGLETEKIKCCLLLDSVCSTIENVMATTLPGLLTVKHYLSPQQLREHHEPVMIYQPRDFFRAQTLKETSLTNTMGGYKESFSSIMCFGCHDVYSQASLGMDIHASDLNLLTRRKLSRLLDPPDPLGKDWCLLAMNLGLPDLVAKYNTSNGAPKDFLPSPLHALLREWTTYPESTVGTLMSKLRELGRRDAADFLLKASSVFKINLDGNGQEAYASSCNSGTSYNSISSVVSR",cell detachment,17.4%±7.4%
